# Data as given in paper PMC7914648 (Pharmaceuticals, 2021).
# “Also recorded” adds a separate entry of the source.
# Legend:
# [1] = Stability in blood (hydrolysis, PAPTPL release); type: in vitro ADME; settings: fresh heparinized C57BL mouse blood, 37 °C, 5 µM from 5 mM DMSO stock, HPLC-UV, % PAPTPL released relative to amount spiked, mean, n = 5 (An2-PAPTP) and 4 (TAT-PAPTP)
# Experimental: C57BL mice were anesthetized and blood was withdrawn from the jugular vein and heparinized. Blood samples (1 mL) were spiked with compound (5 µM; dilution from a 5 mM stock solution in DMSO) and incubated at 37 °C for 4 h (the maximum period allowed by blood stability). Aliquots were taken after 10 min, 30 min, 1 h, 2 h, and 4 h before HPLC-UV analysis.
# Each aliquot was treated as described above (Section 4.7.1). Compound stability in blood was expressed as % of PAPTPL released relative to the amount of An2-PAPTP and TAT-PAPTP spiked in the sample at time 0.
# [2] = Aqueous solubility determination; type: physicochemical
# Experimental: For TAT-PAPTP and An2-PAPTP, three distinct suspensions were prepared by diluting 25 mM stock solutions in DMSO to 100 μM, in 0.9% NaCl saline or water (DMSO < 0.4%). The suspensions were sonicated 5 min and immediately analyzed. The suspensions were then centrifuged at 12,000× g, 18 °C, for 1 and 2 h, and the supernatants were analyzed by HPLC/UV at the end of each centrifugation. An additional analysis was performed after 24 h of standing. The chromatographic peak areas were used to determine the concentration of the compound in the supernatants, based on calibration curves built using solutions in DMSO.
# C57BL mice = assay: Observed toxicity after tail vein injection; type: in vivo; settings: 5 µmoles/kg bw by tail vein injection in mouse plasma; no proper toxicological study
# Experimental: TAT-PAPTP (5 µmoles/kg bw) was administered by tail vein injection to 2 C57BL mice. […] The observed toxicity was not due to the use of plasma, since mice were not made ill by the administration of PAPTP or An2-PAPTP in the same vehicle (see below, Section 2.7).
# (§1) A stock solution of the peptide-PAPTP conjugates was prepared in DMSO. TAT-PAPTP was administered at 8 and 5 μmol/kg bw and An2-PAPTP only at 5 μmol/kg bw. The calculated quantity of drugs was diluted from the stock solution in saline or mouse plasma to a final volume of 200 μL.
# [3] = type: in vivo, mouse; settings: An2-PAPTP 5 µmoles/kg bw i.v. in mouse plasma
# Experimental: The brains of these mice were analyzed to evaluate the presence of the construct in the tissue (see Section 4.7). Each brain was homogenized and incubated with an equal volume of phosphate-buffered saline (PBS, pH 12.5) for 24 h; 10 volumes of ethyl acetate were then added. After vigorous mixing, the organic phase was collected, concentrated and analyzed via HPLC. This procedure allows hydrolysis of the carbamate bond, leading to the extraction of PAPTPL, which is considered proportional to the amount of peptide-PAPTP conjugate (or its fragments) present in the brain.
# The protocol set up for PAPTPL recovery turned out to be inefficient for the quantification of TAT-PAPTP. An alternative protocol was thus developed. Tissue obtained from untreated mice was weighed and homogenized with PBS pH 7.4 (1 vol) with a potter. The pre-established amount of analyte was added into tissue homogenates and, after thorough vortexing, 1 vol of PBS pH 12.5 was added and the sample was incubated with intermittent vortexing at 60 °C for 24 h. This step is required to allow the hydrolysis of the carbamate bond connecting the peptide and PAPTPL. 10 vol of ethyl acetate were added and, after vortexing and sonication for 2 min, the sample was centrifuged at 12,000× g, 7 min, Room Temperature. The organic phase was collected and concentrated with Hetovac VR-1. ACN was added to the concentrated sample to allow the resuspension of PAPTPL and analyzed via HPLC. Quantification was as described for PAPTPL.
# Brain and liver obtained from untreated mice were weighed and homogenized with PBS pH 7.4 (1 vol) with a potter. The pre-established amount of analyte was added into tissue homogenates and, after thorough vortexing, 5 vol of acetone were added and the sample was sonicated for 2 min. Subsequently, 5 vol of ACN containing 0.1% trifluoracetic acid (TFA) were added and the sample was sonicated for 5 min. The sample was then centrifuged at 12,000× g for 7 min at 4 °C and the supernatant was collected, concentrated with a Hetovac VR-1, and analyzed via HPLC-UV.
# To quantify the amount of An2-PAPTP stuck in the tissue, the pellet remaining after the procedure described above was incubated with intermittent Vortexing at 60 °C for 3 h with PBS pH 12.5/ACN 1:1 and then centrifuged at 12,000× g for 7 min. HPLC-UV analysis of the supernatant, measuring PAPTPL hydrolyzed from the tissue, thus indirectly reflects the amount of An2-PAPTPL in the pellet (Scheme 3). Quantification was as described for PAPTPL.
# as §1
structure (smiles),measurement,setting,value
CC[C@H](C)[C@H](NC(=O)Oc1ccc(CCCOc2ccc([P+](CCCc3ccc(OCCCCOc4c5ccoc5cc5oc(=O)ccc45)cc3)(c3ccccc3)c3ccccc3)cc2)cc1)C(=O)N[C@H](C(=O)N[C@@H](Cc1ccccc1)C(=O)N[C@@H](Cc1ccccc1)C(=O)N[C@@H](Cc1ccc(O)cc1)C(=O)NCC(=O)NCC(=O)N[C@@H](CO)C(=O)N[C@@H](CCCNC(=N)N)C(=O)NCC(=O)N[C@@H](CCCCN)C(=O)N[C@@H](CCCNC(=N)N)C(=O)N[C@@H](CC(N)=O)C(=O)N[C@@H](CC(N)=O)C(=O)N[C@@H](Cc1ccccc1)C(=O)N[C@@H](CCCCN)C(=O)N[C@H](C(=O)N[C@@H](CCC(=O)O)C(=O)N[C@@H](CCC(=O)O)C(=O)N[C@@H](Cc1ccc(O)cc1)C(=O)O)[C@@H](C)O)[C@@H](C)O [An2-PAPTP],hydrolyzed in mouse blood over 4 h (PAPTPL released),[1],about 60%
same,solubility in 10 mM phosphate buffer,"[2]; 10 mM phosphate buffer, supernatants after centrifugation, HPLC",precipitated
same,solubility in 0.9% NaCl saline,"[2]; 0.9% NaCl saline, kinetic, 25 mM DMSO stock diluted to 100 μM (DMSO < 0.4%), sonicated 5 min, centrifuged 12,000 × g 18 °C 1 and 2 h, supernatant HPLC/UV, detection limit 0.1 µM",precipitated in saline; also recorded: insoluble in saline
same,solubility in water,"[2]; water, kinetic, 25 mM DMSO stock diluted to 100 μM (DMSO < 0.4%), sonicated, centrifuged 12,000 × g 18 °C, supernatant HPLC/UV",above 100 μM
same,observed toxicity in mice,C57BL mice,not made ill; also recorded: considerably less toxic than TAT-PAPTP; also recorded: did not show toxicity
same,"Brain Psoralenic Species (nmol/g Tissue), 15 min","[3]; 15 min, PAPTPL after carbamate hydrolysis, mean ± SEM, n = 5",0.3 ± 0.1 nmol/g Tissue
same,"Brain Psoralenic Species (nmol/g Tissue), 30 min","[3]; 30 min, PAPTPL after carbamate hydrolysis, mean ± SEM, n = 4",0.4 ± 0.6 nmol/g Tissue
same,presence in brain one hour post-injection,[3]; one hour,only a trace could be detected
